Source: patent US10597674B2, “HPPD variants and methods of use” (BASF Agricultural Solutions Seed, US LLC, priority 2015, dated 2020)
Changes are numbered by the printed parent chain. Names may count otherwise.

B1: SEQ ID NO: 32: mutant HPPD polypeptide: P268R T270E E335P G336H N337S A340V I345V (protein)
chain: MADLYENPMGLMGFEFIEFASPTPGTLEPIFEIMGFTKVATHRSKNVHLYRQGEINLILNNEPNSIASYFAAEHGPSVCGMAFRVKDSQKAYNRALELGAQPIHIDTGPMELNLPAIKGIGGAPLYLIDRFGEGSSIYDIDFVYLEGVERNPVGAGLKVIDHLTHNVYRGRMVYWANFYEKLFNFREARYFDIKGEYTGLTSKAMSAPDGMIRIPLNEESSKGAGQIEEFLMQFNGEGIQHVAFLTDDLVKTWDALKKIGMRFMTAPRDEYYEMLEGRLPDHGEPVDQLQARGILLDGSSVEGDKRLLLQIFSETLMGPVFFEFIQRKGDDGFGPHSFKVLFESVERDQVRRGVLTAD
modifications: mutant HPPD polypeptide
notes: mutant HPPD polypeptide: P268R T270E E335P G336H N337S A340V I345V
B2: SEQ ID NO: 96: mutant HPPD polypeptide: R213K P268G T270E E335P G336H N337S A340V I345V (protein)
chain: B1 chain with R213K, R268G
modifications: mutant HPPD polypeptide
notes: mutant HPPD polypeptide: R213K P268G T270E E335P G336H N337S A340V I345V
B3: SEQ ID NO: 31: mutant HPPD polypeptide: P268G T270E E335P G336H N337S A340V I345V (protein)
chain: B1 chain with R268G
modifications: mutant HPPD polypeptide
notes: mutant HPPD polypeptide: P268G T270E E335P G336H N337S A340V I345V

How the values were obtained:
[1] = test system: E. coli cells expressing an HPPD polypeptide; test: Brown Color Assay on solid LB-agar, visual score of brown pigment; format: cell-based; parameters: key to brown pigment formation: +++: a dark brown coloring as seen for E. coli cells expressing one of the respective mutant HPPD polypeptide without inhibitor; ++: medium brown pigmentation; +: light brown pigmentation; 0: no brown pigmentation development was detected on the LB agar plates
Protocol: Mutant HPPD polypeptides were analyzed using a brown color assay (WO2014/043435). Bacterial cells expressing the mutant HPPD polypeptide according to the invention were assayed in 96 well format for HPPD inhibitor tolerance by spotting on solid media containing LB-agar, selection agent for the expression vector pSE420(RI)NX (WO2014/043435), 5 mM tyrosine (Sigma-Aldrich, St. Louis, USA), 42 mM succinate (Sigma-Aldrich, St. Louis, USA) and six different concentrations of the HPPD inhibitor herbicide Cmpd. 1 (0-500 μM). In the brown color assay, an overnight culture of the E. coli cells expressing one of the respective mutant HPPD polypeptides were diluted to an OD600 of 1 and 10 μl extract was spotted in triplicates on plates containing 0, 25, 50, 100, 250, or 500 μM of Cmpd. 1. Plates were covered with airpore tape and incubated at 30 degrees C. After 24 hours, the cells were kept in darkness at room temperature and after 7 days the brown pigment formation was scored visually. In the presence of an HPPD inhibitor herbicide, this pigment formation is inhibited and the color of the agar plate will not alter, unless an HPPD inhibitor herbicide tolerant HPPD polypeptide is expressed and active. […] The “++” and “+” scores a medium and light brown pigmentation, respectively, and the “0” means that no brown pigmentation development was detected on the LB agar plates.

[2] = test system: transgenic soybean T0 events; test: Greenhouse spray test of T0 soybean events, herbicide tolerance rating 0-3; format: in vivo; conditions: Cmpd. 1 300 g AI/ha; for number of events with Herbicide Tolerance Rating 0: five days after application; for number of events with Herbicide Tolerance Rating 1: rating 1 = slight tolerance, 50-95% leaf damage; for number of events with Herbicide Tolerance Rating 2: rating 2 = moderate tolerance, 10-49% of leaf area; for number of events with Herbicide Tolerance Rating 3: rating 3 = good tolerance, less than 10% of leaf area
Protocol: Tolerant green shoots were transferred to rooting media or grafted. Rooted plantlets were transferred to the greenhouse after an acclimation period. Plants containing the transgene were then sprayed with HPPD inhibitor herbicides, as for example with mesotrione at a rate of 300-600 g AI/ha, or with Cmpd. […] Five to ten days after the application, the symptoms due to the application of the herbicide were evaluated and compared to the symptoms observed on wild-type plants under the same conditions.
For example, T0 soybean plants having a “plant expression cassette”, which includes an HPPD inhibitor tolerant HPPD polypeptide of the present invention, were tested towards the tolerance of Cmpd. 1.
Prior greenhouse trials with the transgenic plants, soybean transformants were routinely analyzed for the expression and presence of the transgenes using the ELISA protein detection method (see detailed description under item D and H). Only plants recovering in the selection media and having a detectable HPPD transgene protein expression were used for the herbicide tolerance analysis. A DeVries Tracker Sprayer was calibrated prior to each spraying. The chemical formulation used for Cmpd. 1 was supplemented with ammonium sulfate and methylated rape seed oil. Spray tests were conducted with a concentration, which equals to 300 grams AI per hectare (300 g AI/ha). Tolerance was evaluated 5 days after spraying. […] A rating of “3” was assigned to plants showing good tolerance, i.e. less than 10% of the leaf area from the top three trifoliate leaves showing chlorosis or only very slight bleaching.

[3] = test system: transgenic T1 soybean events; test: Field trials of T1 soybean events, leaf damage eight days after application; format: in vivo
Protocol: Soybean plants expressing an HPPD inhibitor tolerant polypeptide of the present invention alone, or along with a gene conferring tolerance to glyphosate and/or a gene conferring tolerance to glufosinate or having a “plant expression cassette”, which includes only an HPPD inhibitor tolerant polypeptide of the present invention, were tested for tolerance to different HPPD inhibitor herbicide chemical classes. The transgenic plants were routinely analyzed for the expression and presence of the transgenes using the ELISA protein detection method (see detailed description under item D and H). Only plants recovering in the selection media and having a detectable HPPD transgene protein expression were regenerated, transferred to the greenhouse and used at V2-V4 growth stage for the HPPD inhibitor herbicide tolerance analysis of the T0 soybean events in the greenhouse (Example 6). The chemical formulation with HPPD inhibitor herbicides was supplemented with ammonium sulfate and methyl ester rapeseed oil. Herbicide tolerance evaluation was taken 5-21 days after spraying. The best performing independent T0 soybean events were selfed to produce T1 soybean seeds. In the field trails, the advanced T1 soybean seeds were planted and treated with either 210 g/ha of isoxaflutole or 150 g/ha of Cmpd.
In Table 10, the frequency of the soybean events showing a good tolerance, i.e. equal or less than 15% damage of the total leaf area are summarized

[4] = 25 μM Cmpd. 1, scored after 7 days
[5] = 50 μM Cmpd. 1, scored after 7 days
[6] = 100 μM Cmpd. 1, scored after 7 days
[7] = 250 μM Cmpd. 1, scored after 7 days
[8] = 500 μM Cmpd. 1, scored after 7 days
[9] = 150 g/ha Cmpd. 1, stage V2-V4, eight days after application
[10] = 210 g/ha isoxaflutole, stage V2-V4, eight days after application

Row | Molecule | brown pigment formation [1, 4] | brown pigment formation [1, 5] | brown pigment formation [1, 6] | brown pigment formation [1, 7] | brown pigment formation [1, 8] | proportion of T0 soybean events with less than 10% leaf damage ([2]; five days) [%] | number of events with Herbicide Tolerance Rating 0 [2] | number of events with Herbicide Tolerance Rating 1 ([2]; five days) | number of events with Herbicide Tolerance Rating 2 ([2]; five days) | number of events with Herbicide Tolerance Rating 3 ([2]; five days) | Frequency in the population (events with ≤15% leaf damage) [3, 9] [%] | Independent events with ≤15% leaf damage after spray [3, 9] | Frequency in the population (events with ≤15% leaf damage) [3, 10] [%] | Independent events with ≤15% leaf damage after spray [3, 10]
1 | B1 | +++ | +++ | +++ | ++ | + | ~72 | 1 | 0 | 10 | 28 | 42 | 10 | 50 | 12
2 | B2 | +++ | ++ | ++ | ++ | + | – | 0 | 5 | 43 | 34 | 70 | 14 | 55 | 11
3 | B3 | +++ | +++ | +++ | ++ | + | – | 4 | 1 | 21 | 30 | 86 | 12 | 93 | 13
